Here are results for one molecule from US20250277030A1 (Zymeworks, published 2025).

For assay [1], the target named is T1, human sodium-dependent phosphate transporter 2B (NaPi2b) (human, UniProt O95436 1-690).
T1 construct: UniProt ID is given as 095436 [sic]; also called hNaPi2b; Hu NaPi2b
T1 sequence: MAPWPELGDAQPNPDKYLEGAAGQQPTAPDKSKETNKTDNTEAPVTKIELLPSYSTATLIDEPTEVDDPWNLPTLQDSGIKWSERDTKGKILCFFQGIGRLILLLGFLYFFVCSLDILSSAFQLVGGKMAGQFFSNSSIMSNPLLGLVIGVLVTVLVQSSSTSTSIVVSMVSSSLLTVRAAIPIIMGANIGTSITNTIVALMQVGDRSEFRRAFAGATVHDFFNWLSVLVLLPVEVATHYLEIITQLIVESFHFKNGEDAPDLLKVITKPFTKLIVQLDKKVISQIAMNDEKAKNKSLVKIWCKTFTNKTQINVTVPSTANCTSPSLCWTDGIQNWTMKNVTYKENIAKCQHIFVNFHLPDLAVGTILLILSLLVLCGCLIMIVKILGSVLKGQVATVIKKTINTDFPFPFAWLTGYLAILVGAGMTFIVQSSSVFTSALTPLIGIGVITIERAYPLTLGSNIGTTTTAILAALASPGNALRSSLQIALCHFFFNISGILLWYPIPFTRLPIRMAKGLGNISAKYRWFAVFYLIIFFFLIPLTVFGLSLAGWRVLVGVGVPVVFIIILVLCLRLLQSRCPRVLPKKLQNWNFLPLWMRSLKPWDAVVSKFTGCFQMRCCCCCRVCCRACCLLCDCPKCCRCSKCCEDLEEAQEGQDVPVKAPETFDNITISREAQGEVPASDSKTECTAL
Kind of assay: flow cytometry on HCC-78 cells (endogenous NaPi2b), 4 C, anti-human IgG Fc AF647 detection. The procedure:
(§1) Briefly, HEK293-6e cells were transfected for ˜24 hours to transiently express human NaPi2b, cynomolgus or mouse NaPi2b, at 1 μg of DNA per 1 million cells. Following transfection, 50,000 cells per well were seeded in V-bottom 96-well plates and incubated with 200 nM of primary antibody for 18-24 hours at 4° C. to prevent internalization. Post-incubation, cells were washed and stained with anti-Human IgG Fc AF647 conjugate (Jackson Immuno Research Labs, West Grove, PA, Cat. No. 109-605-098, Lot. No. 124868) at 4° C. for 1 hour. Following staining and washing, fluorescence was detected by flow cytometry on BD LSRFortessa™ Cell Analyzer (BD Biosciences, Franklin Lake, NJ) with 10,000 minimum events collected per well. The AF647/APC-A GeoMean (fluorescence signal geometric mean, proportional to anti-Human AF647 binding) was calculated for the live singlet cell population for each primary antibody using FlowJo™ v8 software (BD Biosciences, Franklin Lake, NJ). The Bmax and Kd of each primary antibody were calculated using GraphPad Prism Version 9 (GraphPad Software, San Diego, CA)
(§2) The ability of ADCs to bind to cells expressing NaPi2b was assessed. […] Binding to endogenous high NaPi2b-expressing cell lines IGROV-1 and HCC-78 was assessed by flow cytometry according to methods described in Example 5.

In assay [2] the target is T1, human sodium-dependent phosphate …. In words: cell-based or functional assay.
The target of a further assay is T2, mouse NaPi2b (mouse, UniProt Q9DBP0 1-697).
T2 construct: Transiently expressed on HEK293-6e cells; also called Ms NaPi2b
T2 sequence: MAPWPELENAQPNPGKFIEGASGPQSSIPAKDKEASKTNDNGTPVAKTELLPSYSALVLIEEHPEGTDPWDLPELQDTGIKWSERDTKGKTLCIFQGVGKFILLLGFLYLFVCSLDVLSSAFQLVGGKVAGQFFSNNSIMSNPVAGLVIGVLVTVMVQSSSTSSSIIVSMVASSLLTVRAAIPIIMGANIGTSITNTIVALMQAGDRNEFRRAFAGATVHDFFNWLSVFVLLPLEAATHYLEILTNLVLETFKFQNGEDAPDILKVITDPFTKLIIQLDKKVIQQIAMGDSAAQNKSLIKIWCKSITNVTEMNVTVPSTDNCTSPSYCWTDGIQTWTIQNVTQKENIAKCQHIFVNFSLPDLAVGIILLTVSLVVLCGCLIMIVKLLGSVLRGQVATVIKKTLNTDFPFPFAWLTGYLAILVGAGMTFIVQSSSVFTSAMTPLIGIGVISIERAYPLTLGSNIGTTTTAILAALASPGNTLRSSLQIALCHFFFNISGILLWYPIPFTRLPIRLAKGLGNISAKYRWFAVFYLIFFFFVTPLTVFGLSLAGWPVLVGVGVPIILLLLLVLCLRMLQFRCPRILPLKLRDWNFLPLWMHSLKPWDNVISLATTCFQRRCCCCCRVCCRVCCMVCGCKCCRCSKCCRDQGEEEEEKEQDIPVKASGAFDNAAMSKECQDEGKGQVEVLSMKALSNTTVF
In words: flow cytometry, HEK293-6e cells transfected with mouse NaPi2b; apparent Kd. The method, then: The binding cross-reactivity of humanized antibody variant v29456 to human, cynomolgus and mouse NaPi2b was assessed by flow cytometry using HEK293-6e transfected cells.
as §1

Assay [3] deals with T1, human sodium-dependent phosphate …. In words: flow cytometry, HCC-78 cells (endogenous NaPi2b); apparent Kd. The method, then:
as §1, §2
Background: In flow cytometry, cells or beads pass a laser one at a time.

Assay [4] has the same target. In words: flow cytometry on IGROV-1 cells (endogenous NaPi2b), 4 C, anti-human IgG Fc AF647 detection. The procedure:
as §1, §2

Assay [5] shares this target. In words: flow cytometry, IGROV-1 cells (endogenous NaPi2b), 24 h at 4 °C; apparent Kd. A digest of the protocol:
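IGROV-1 cells were incubated with test antibody for 24 hours at 4° C to prevent internalization, then stained with anti-human IgG Fc AF647 for 30 min at 4° C. AF647 geometric mean fluorescence of live cells was measured by flow cytometry and plotted per antibody.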

B1: v29456 humanized anti-NaPi2b antibody (H1L2) (antibody, human IgG1, kappa)
heavy: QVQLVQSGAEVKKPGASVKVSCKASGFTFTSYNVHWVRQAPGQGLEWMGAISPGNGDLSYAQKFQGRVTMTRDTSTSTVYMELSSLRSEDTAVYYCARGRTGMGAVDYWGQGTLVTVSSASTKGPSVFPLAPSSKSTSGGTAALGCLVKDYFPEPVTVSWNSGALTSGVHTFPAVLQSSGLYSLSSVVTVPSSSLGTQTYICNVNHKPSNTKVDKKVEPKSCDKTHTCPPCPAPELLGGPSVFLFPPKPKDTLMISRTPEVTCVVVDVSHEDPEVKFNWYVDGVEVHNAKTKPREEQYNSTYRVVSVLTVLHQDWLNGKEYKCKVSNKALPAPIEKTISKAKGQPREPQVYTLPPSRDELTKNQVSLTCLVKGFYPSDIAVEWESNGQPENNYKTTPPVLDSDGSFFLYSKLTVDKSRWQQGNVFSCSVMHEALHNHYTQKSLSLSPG
light: DVQMTQSPSSLSASVGDRVTITCRASQDVYSYLNWYQQKPGKAVKLLIYYTSRLQSGVPSRFSGSGSGTDYTLTISSLQPEDFATYYCQQYNIFPWTFGQGTKLEIKRTVAAPSVFIFPPSDEQLKSGTASVVCLLNNFYPREAKVQWKVDNALQSGNSQESVTEQDSKDSTYSLSSTLTLSKADYEKHKVYACEVTHQGLSSPVTKSFNRGEC
For the molecule B1, the figures for the “EC50 (read off the curve)” value in assay [1] and in assay [4] were about 2 nM and about 0.6 nM, respectively. The “Internalized Fluorescence Fold-Over Palivizumab, HCC-78, 5 hrs” value in assay [2] stood at 25.3 fold. For the same molecule, the “Internalized Fluorescence Fold-Over Palivizumab, HCC-78, 24 hrs” value in assay [2] was determined as 59.9 fold. Also, the “Internalized Fluorescence Fold-Over Palivizumab, NCI-H441, 5 hrs” value in assay [2] turned out to be 2.4 fold. In assay [2], the “Internalized Fluorescence Fold-Over Palivizumab, NCI-H441, 24 hrs” value came out at 4 fold. For the same molecule, the figures for the Kd (with mouse NaPi2b; in assay [3]; in assay [5]) were 10.6 nM, 2.27 nM and 1.1 nM, respectively.

What is called EC50 (read off the curve) is the concentration at which the effect is half-maximal. High values mean a need for much substance, low ones an effect from little substance.
